What all share (assay): crystal structure
Data set [1] addresses Len c 1, lentil vicilin (7S globulin) core region (Lens culinaris Medicus (lentil)).
Data set [2] addresses Pis s 1, pea vicilin (7S globulin) core region (Pisum sativum L. (pea)).
Data set [3] deals with the molecule itself.

A word on the stoichiometry N: it is the number of molecules, sites or subunits per partner or assembly. “Len c 1, lentil vicilin (7S globulin) core region (domain or fragment)”: the stoichiometry N in data set [1] stood at 3.
In turn, “Pis s 1, pea vicilin (7S globulin) core region (domain or fragment)” had a stoichiometry N in data set [2] of 3.

B1: Pis s 2, pea convicilin (7S globulin) core region (domain or fragment, Pisum sativum L. (pea))
chain: SQERRNPFLFKSNKFLTLFENENGHIRLLQRFDKRSDLFENLQNYRLVEYRAKPHTIFLPQHIDADLILVVLSGKAILTVLSPNDRNSYNLERGDTIKLPAGTTSYLVNQDDEEDLRLVDLVIPVNGPGKFEAFDLAKNKNQYLRGFSKNILEASYNTRYETIEKVLLEEQEKDRKRRQQGEETDAIVKVSREQIEELKKLAKSSSKKSLPSEFEPINLRSHKPEYSNKFGKLFEITPEKKYPQLQDLDLFVSCVEINEGALMLPHYNSRAIVVLLVNEGKGNLELLGLKNEQQEREDRKERNNEVQRYEARLSPGDVVIIPAGHPVAITASSNLNLLGFGINAENNERNFLSGSDDNVISQIENPVKELTFPGSVQEINRLIKNQKQSHFANA
With B1, the “stoichiometry N” value in data set [3] turned out to be 3.

The values are drawn from publication PMC9789324 (Food Chemistry: Molecular Sciences, 2022).
